The values that follow come from the DeepSol protein solubility set.

A short description of this data set: soluble on expression in E. coli; label from the status in PepcDB or PDB records.
With “MKVIIIGGETTAYYLARSMLSRKYGVVIINKDRELCEEFAKKLKATIIHGDGSHKEILRDAEVSKNDVVVILTPRDEVNLFIAQLVMKDFGVKRVVSLVNDPGNMEIFKKMGITTVLNLTTLITNTVEALIFPDEFSSIIPLEQGIEFLSVNVEEDSPVVGKKLKDLPLPRDSIIAAIVRGGVLVVPRGDTEILSGDKLYVIVSAEAKETVEETLLGR”, the “soluble on expression in E. coli” value is “soluble”. For “MRCILLGSGTSTGVPEVGCHCRVCRSEDRHDKRTRTSLLIITDAGKRILIDCSPDFRQQALFAGIDSLDAVLLTHEHFDHVGGLDDLRTICWHRELAVYAEQNVLDSIRDRLHYVFRKNPYPGTPLLKLCEVKPDMPFQVADLTVEPLRIMHGRLPILGYKIGEMAFLTDMKDIAAEEIECLKSCRLLFINGLRYRKEHPSHQTIEQAIDTIGQIGNPESVLIHLSHHAPLHQEHLEILPPHIHSGYDGLEAIIDEKGIRIKDFEPHVSRSEYHYQDCGRIGYESALTLQRKLFHDAVADKLENRKPQNTLLFCEHEPVLTLGKHGHEENLLLSESELKSRDIRLFHIERGGDITYHGPGQITGYPIFDLEQYGIGLRSYIEMLEQCIIDLIAIFGLKGERSAGASGVWLDPDIPGRTRKICAIGVKSSRHITMHGFALNVNTDLDYFKLINPCGFSDRGVTSISRELGREQDFILVKQQLEAVFRRNFGAL”, the “soluble on expression in E. coli” value is recorded as “not soluble”. Take “MSLELVIGTKRWSSWSLRPWLALKRAGVDFTELEVALRRGEATGDEIGCISPSRLAPALRDGDLVIWDSLAICEYLAERYPDAKLWPDDPVLRALGRSACAEMHSGFQALRGECPMALDEPPRKLDLSEATQKNVRRIVALWTGLLARSHGPFLLGDWSIADAFYTPVATRFRTYDVRLADYGDAGAAQGYSDRLLQTPEFLEWERAAQAGEGHHHHHH”: the “soluble on expression in E. coli” value is given as “soluble”.

As for “MGSDKIHHHHHHEISDGVVRIGLLTDMSGAFSQFSGHGSVVAAQMAIDDCLAAECKGMKIELLSADHQNKTDIALAKAREWADVNKVDAYADMVNSAVALAMQSLAVQKKKAALFAGGPLRISNEDCQPEYAVQWMWDTYSQTAAAIKGLAKPKQGWYFITVDYAYGNAAVAEARKQLEAIGAHTVGESKHPLNSNDMSSQIIAAQQSKADVVAFANSGADSANAIKTASEFKLGAKKLQAAFFPTIYEIKGIGLAQAKGLRFPESFYWDIDDGTRRFSKRFMDIYKKGPPSLTHAGVYSSVYHYLKAVAATKSDDAQTVIRKMHELPIRDDVVRNPKLRPDGRMVHDYYYFRVKSPQESKGPWDLYALEKTLPGDEVFLPVAESQCRVFKGQAK”, the “soluble on expression in E. coli” value was “not soluble”. In the case of “MGSDKIHHHHHHMLYQLHEFNRSLLNPLMHWAEASSRLFTDPASPLAYTPYAQRIAAGYELLYRLGKQYEKPNFNIESVLVNGKTVAIVEEETEKKSFCTLIHFRKKLSAKEFAALKQPVVLLVAPLSGHHSTLLRDTVRSLLQDHDVYITDWTDARMVPLAEGPFHLHDYVYYIQDFIRRLGPDLHVISVCQPTVPVLAAISLMASERDPRLPKTMTMMGGPIDARKSPTQVNDLAVEKPHAWFENQVIYSVPPSYPGFGRKVYPGFLQHAGFIAMNPGRHAQSHWDFYMHLREGDNESAEEHRKFYDEYNAVLDMPAEYYLETIKTVFQEHRLPLGTWEIEGKLVRPQDIKSVALFTIEGEKDDISGAGQTHAAQDLCSALPQSDKQQFTAPQCGHYGIFSGRKWREIIAPKIGEFITRYS”, the “soluble on expression in E. coli” value is listed as “not soluble”. As for “MDEEEEISVVQDMAYDYSGKRLATVSIDREICIWNKKDDWQRTYQWKAHEGPLFGVSWAHPCFGNILATGSYDKRVIIWEEPEASSSYSSSSMDKSTKGWTALAHLVDARDEVRQVQFAPPHLGLLLASGSADGYVRIYTCIDEADLHQWPLLTELDMDSPVVGMSWNPSVDSIPLIVVASHKDCRVWSMDNDTRRWTDWHLFRTSESDTADLSAVAWAPHVGRSFERIALGCEDGSILLFQFPRIQQGNKTNGHEMQPICRLNHGNERIVRLQWNMVGSILASSASDRMVRLWKALPQDGTRWNCFDVVHLNE”, the “soluble on expression in E. coli” value is “not soluble”. “MRLEFSIYRYNPDVDDAPRMQDYTLEADEGRDMMLLDALIQLKEKDPSLSFRRSCREGVCGSDGLNMNGKNGLACITPISALNQPGKKIVIRPLPGLPVIRDLVVDMGQFYAQYEKIKPYLLNNGQNPPAREHLQMPEQREKLDGLYECILCACCSTSCPSFWWNPDKFIGPAGLLAAYRFLIDSRDTETDSRLDGLSDAFSVFRCHSIMNCVSVCPKGLNPTRAIGHIKSMLLQRNA”: the “soluble on expression in E. coli” value is listed as “soluble”. For “MGRVIFMGKTGCGKTTLCQALNNLEIKYKKTQAIELYDNAIDTPGEYMENRGYYTALIVTAADADIIALVYDCTSEENYIAPGFASMFCKEVIGIITKINLAKDKSEIEVAEERLNLAGVSKIFKVDTVDDVGIKELFNYLNKFLEHHHHHH”, the “soluble on expression in E. coli” value was “soluble”. As to “MDWRHKAVCRDEDPELFFPVGNSGPALAQIADAKLVCNRCPVTTECLSWALNTGQDSGVWGGMSEDERRALKRRNARTKARTGV”, the “soluble on expression in E. coli” value was “not soluble”.

Turning to “MTHTVHLHLEETDNLALQRLCGSFDNNLDLLAKALDIHISRRFEHFTFNGAFAHAGKRALLKLLETAQTRDLNDGDIRLAAVEAQTEDAGHQEKNHDHAYYFRTKRGSIGGRTPRQNGYIRALLNHDIVFGLGPAGTGKTYLAVAAAVDAMEKHQVERIILVRPAVEAGEKLGFLPGDLTQKVDPYLRPLYDALYDLMGFDRVTKLIEKGLIEIAPLAYMRGRTLNGAYIILDEAQNTTPEQMKMFLTRIGFGAKAVITGDTSQIDLPKNIKSGLKDAREKLHNVEGLYFHTFTGEDVVRHPLVQKIVEAYESAEHD”, the “soluble on expression in E. coli” value was “not soluble”. The value for “MTSLIGTHSGKFHCDEAFACFMLKQLPQFKDHSILRTRDAAQLEKCDIIVDVGGIFDHSKQRYDHHQRGFTDTMRTLEKLNFDTKLSSAGLVYAHYGREVINQILGGNVSSSMIDLFYHRLYEQFVESIDAIDNGISQYDGVPRYHSSGNLSSRTGQFNSHWNEPENDADERFQQAMQFIGEEFSRSVKYLANVWWPAREIIEAAVDKRFEIDASGRIILIENGGCPWKEHFFDIEVEKNIADDNITYILFSDSTNASWRVQAIPVDKMSSFENRMPLPAAWRGLRDDDLSKESGIPGGVFVHISGFIGGNLTREGAIAMARKALEIGEENPVKKAKLGN” was “soluble”; that for “MSLVERVILIVLDSVGAGEMPDADKYGDKGSDTIGNISKAVGGLKLPDMVKMGLGNISGIKGVDKVQYPIGAFGKLKEMSKGKDTVTGHWEMSGVILEEPLNTYPNGFPKDIIDEFEKKIGRKVIGNKVASGTEIIKELGDEHIKTGCPIVYTSADSVFQVAAHEEIIPLDELYKICKVAREMLVDDRTVGRVIARPFVGKNSNYTRTSNRRDFALDPFNKTMLEYIKENKSNVMCVGKIEDIFNKKGVTEAVHIKNNMDGVDKTLEYMKTDKKGLIFTNLVDFDMLYGHRNDPKGYAKALEEFDGRINEIKTNMKDYDVLMITADHGCDPTTESTDHSREYIPFIAYGKDIKGGADIKIRDSFSDIGKTILDLLQVENNLVGKSFKDIIMKEGHHHHHH” was “not soluble”; that for “MGYLHIDGRGMKPNGGSRHNPLEAETIAAWLVAHKDDIERHYGEPLYKVVGVVTPFSAQVNAIKMSLRKLEINGKDEQGLLTVGTVHSLQGAERAIVLFSPVYSKHEDGRFLDSNSTILNVAVSRAKDSFLVFGDMDLIEMQPAFSPRGLLAKYLFSSDNNALQFEFQKRQDLISAHTQISTLHGVEQHDEFLNKTLAGAQKKITIISPWLSWQKVEQTGFLASMALARSRGIDITVVTDKNCNIAHVDDDKRQEKQHLLNDAVEKLNKMGIATKLVNRVHSKIVIEDEELLCVGSFNWFSATREDKYQRYDTSLVYRGEGVKNEIKAIYGSLDQRQLMGHHHHHHSH” was “not soluble”. Regarding “MTNNSTKVCVLLATYNGTKWCLDQVKSILNQEDVNLEVFVSDDLSSDSTTDLLALLNDSRIHILASSYKFGSACQNFFRLVRDVDFSEYDYIAFADQDDLWNPNKLSYSIEQLNAHCADAFSSNVTAFWPDGRARLIVKDQPQREWDFLFESAGPGCTFVLTKKLACNLANFLHNNYEKTKGVALHDWFTYAFARSNSYSWWIDSQPTMMYRQHESNEFGVNSGVTAALSRFRKTSNGWYRNQVILIGDLVGAEDSWPIKRMRRFSLLDRMLLLFNVFAFRRSFRDRIALFFLLLLPQKKLEHHHHHH”, the “soluble on expression in E. coli” value is reported as “soluble”.
